We go through 13 proteins from patent US20250027068.

B1: PRT-29 (protein)
chain: MANQEIRYSEVTPYHVTSVWTKGVTPPANFTQGEDVFHAPYVANQGWYDITKTFNGKDDLLCGAATAGNMLHWWFDQNKDQIKRYLEEHPEKQKINFNGEQMFDVKEAIDTKNHQLDSKLFEYFKEKAFPYLSTKHLGVFPDHVIDMFINGYRLSLTNHGPTPVKEGSKDPRGGIFDAVFTRGDQSKLLTSRHDFKEKNLKEISDLIKQELTEGKALGLSHTYANVRINHVINLWGADFDSNGNLEAIYVTDSDSNASIGMKKYFVGVNSAGKVAISAKEIEEDNIGAQVLGLFTLSTGQDSWNQTN
B2: PRT-1 (protein)
chain: MANQEIRYSEVTPYHVTSVWTKGVTPPANFTQGEDVFHAPYVANQGWYDITKTFNGKDDLLCGAATAGNMLHWWFDQNKDQIKRYLEEHPEKQKINFNGEQMFDVKEAIDTKNHQLDSKLFEYFKEKAFPYLSTKHLGVFPDHVIDMFINGYRLSLTNHGPTPVKEGSKDPRGGIFDAVFTRGDQSKLLTSRHDFKEKNLKEISDLIKKELTEGKALGLSHTYANVRINHVINLWGADFDSNGNLKAIYVTDSDSNASIGMKKYFVGVNSAGKVAISAKEIKEDNIGAQVLGLFTLSTGQDSWNQTN
B3: PRT-36 (protein)
chain: MANQEIRYSEVTPYHVTSVWTKGVTPPANFTQGEDVFHAPYVANQGWYDITKTFNGKDDLLCGAATAGNMLHWWFDQNKDQIKRYLEEHPEKQKINFNGEQMFDVKEAIDTKNHQTDSKLFEYFKEKAFPYLSTKHLGVFPDHVIDMFINGYRLSLTNHGPTPVKEGSKDPRGGIFDAVFTRGDQSKLLTSRHDFKEKNLKEISDLIKKELTEGKALGLSHTYANVRINHVINLWGADFDSNGNLKAIYVTDSDSNASIGMKKYFVGVNSAGKVAISAKEIKEDNIGAQVLGLFTLSTGQDSWNQTN
B4: PRT-30 (protein)
chain: MANQEIRYSEVTPYHVTSVWTKGVTPPANFTQGEDVFHAPYVANQGWYDITKTFNGKDDLLCGAATAGNMLHWWFDQNKDQIKRYLEEHPEKQKINFNGEQMFDVKEAIDTKNHQLDSKLFEYFKEKAFPYLSTKHLGVFPDHVLDMFINGYRLSLTNHGPTPVKEGSKDPRGGIFDAVFTRGDQSKLLTSRHDFKEKTLKEISDLIKKELTEGKALGLSHTYANVRINHVINLWGADFDSEGNLKAIYVTDSDSNASIGMKKYFVGVNSAGKVAISAKEIKEDNIGAQVLGLFTLSTGQDSWNQTN
B5: PRT-31 (protein)
chain: MANQEIRYSEVTPYHVTSVWTKGVTPPANFTQGEDVFHAPYVANQGWYDITKTFNGKDDLLCGAATAGNMLHWWFDQNKDQIERYLEEHPEKQKINFNGEQMFDVKEAIDTKNHQLDSKLFEYFKEKAFPYLSTKHLGVFPDHVIDMFINGYRLSLTNHGPTPVKEGSKDPRGGIFDAVFTRGDQSKLLTSRHDFKEKNLKEISDLIKKELTEGKALGLSHTYANVRINHVINLWGADFDSNGNLKAIYVTDSDSNASIGMKKYFVGVNSAGKVAISAKEIKEDNIGAQVLGLFTLSTGQDSWNQTN
B6: PRT-33 (protein)
chain: MANQEIRYSEVTPYHVTSVWTKGVTPPANFTQGEDVFHAPYVANQGWYDITKTFNGKDDLLCGAATAGNMLHWWFDQNKDQIKRYLKEHPEKQKINFNGEQMFDVKEAIDTKNHQLDSKLFEYFKEKAFPYLSTKHLGVFPDHVIDMFINGYRLSLTNHGPTPVKEGSKDPRGGIFDAVFTRGDQSKLLTSRHDFKEKNLKEISDLIKKELTEGKALGLSHTYANVRINHVINLWGADFDSNGNLKAIYVTDSDSNASIGMKKYFVGVNSAGKVAISAKEIKEDNIGAQVLGLFTLSTGQDSWNQTN
B7: PRT-35 (protein)
chain: MANQEIRYSEVTPYHVTSVWTKGVTPPANFTQGEDVFHAPYVANQGWYDITKTFNGKDDLLCGAATAGNMLHWWFDQNKDQIKRYLEEHPEKQKINFNGEQMFDVKEAIDTKDHQLDSKLFEYFKEKAFPYLSTKHLGVFPDHVIDMFINGYRLSLTNHGPTPVKEGSKDPRGGIFDAVFTRGDQSKLLTSRHDFKEKNLKEISDLIKKELTEGKALGLSHTYANVRINHVINLWGADFDSNGNLKAIYVTDSDSNASIGMKKYFVGVNSAGKVAISAKEIKEDNIGAQVLGLFTLSTGQDSWNQTN
B8: PRT-34 (protein)
chain: MANQEIRYSEVTPYHVTSVWTKGVTPPANFTQGEDVFHAPYVANQGWYDITKTFNGKDDLLCGAATAGNMLHWWFDQNKDQIKRYLEEHPEKQKINFNGEQMFDVKEAIDTKNSQLDSKLFEYFKEKAFPYLSTKHLGVFPDHVIDMFINGYRLSLTNHGPTPVKEGSKDPRGGIFDAVFTRGDQSKLLTSRHDFKEKNLKEISDLIKKELTEGKALGLSHTYANVRINHVINLWGADFDSNGNLKAIYVTDSDSNASIGMKKYFVGVNSAGKVAISAKEIKEDNIGAQVLGLFTLSTGQDSWNQTN
B9: PRT-37 (protein)
chain: MANQEIRYSEVTPYHVTSVWTKGVTPPANFTQGEDVFHAPYVANQGWYDITKTFNGKDDLLCGAATAGNMLHWWFDQNKDQIKRYLEEHPEKQKINFNGEQMFDVKEAIDTKNHQLDSKLFEYFKEKAFPYLSTKHLGVFPDHVIDMFINGYRLSLTNHGPTPVKEGSKDPRGGIFDAVFTRGDQSKLLTSRHDFKEKTLKEISDLIKKELTEGKALGLSHTYANVRINHVINLWGADFDSNGNLKAIYVTDSDSNASIGMKKYFVGVNSAGKVAISAKEIKEDNIGAQVLGLFTLSTGQDSWNQTN
B10: PRT-32 (protein)
chain: MANQEIRYSEVTPYHVTSVWTKGVTPPANFTQGEDVFHAPYVANQGWYDITKTFNGKDDLLCGAATAGNMLHWWFDQNKDQIKRYLEEHPEKQKINFNGEQMFDVKEAIDTKNHQLDSKLFEYFKEKAFPYLSTKHLGVFPDHVIDMFINGYRLSLTNHGPTPVKEGSKDPRGGIFDAVFTRGDQSKLLTSRHDFKEKNLKEISDLIKKELTEGKALGLSHTYANVRINHVINLWGADFDSNGNLKAIYVTDSDSNASIGMKKYFVGVNSAGKVAISAKEIKEDNIGAQVLGLFTLSTGQDIWNQTN
B11: PRT-39 (protein)
chain: MANQEIRYSEVTPYHVTSVWTKGVTPPANFTQGEDVFHAPYVANQGWYDITKTFNGKDDLLCGAATAGNMLHWWFDQNKDQIKRYLEEHPEKQKINFNGEQMFDVKEAIDTKNHQLDSKLFEYFKEKAFPYLSTKHLGVFPDHVIDMFINGYRLSLTNHGPTPVKEGSKDPRGGIFDAVFTRGDQSKLLTSRHDFKEKNLKEISDLIKQELTEGKALGLSHTYANVRINHVINLWGADFDSNGNLKAIYVTDSDSNASIGMKKYFVGVNSAGKVAISAKEIKEDNIGAQVLGLFTLSTGQDSWNQTN
B12: PRT-38 (protein)
chain: MANQEIRYSEVTPYHVTSVWTKGVTPPANFTQGEDVFHAPYVANQGWYDITKTFNGKDDLLCGAATAGNMLHWWFDQNKDQIKRYLEEHPEKQKINFNGEQMFDVKEAIDTKNHQLDSKLFEYFKEKAFPYLSTKHLGVFPDHVIDMFINGYRLSLTNHGPTPVKEGSKDPRGGIFDAVFTRGDQSKLLTSRHDFKEKNLKEISDLIKKELTEGKALGLSHTYANVRINHVINLWGADFDSNGNLEAIYVTDSDSNASIGMKKYFVGVNSAGKVAISAKEIKEDNIGAQVLGLFTLSTGQDSWNQTN
B13: PRT-589 (protein)
chain: MRNQTTTYSEVTPSHITSVWTKGVTPPEQFIQGEDVFHAPYIANQGWYDITKTFNGKDDLLCGAATAGNMLHWWFDQNKEQIENYLKKHPEKQKINFNNEEMFDVREAINTKDSQTDSALFSYFKDKAFPYLSAKHLGVFPDHVIDMFINGYRLSLTNHDKTDVNRGTKDPRGGIFDAVFTRGDQSKLLTARHDFKNKTLKEISDLIKQELTEGKALGLSHTYANVRINHVINLWGADFDAEGNLEAIYVTDSDSNASIGMKKYYVGVNSAGKVAISAKKIEGDNIGAQVLGLFTLSTGQDIWQQTNLEHHHHHH

In the data set the target is pooled human IgG.
B1 registered an Enzyme Activity Endpoint Assay: Fab′2 of 19 ng/µL, an Enzyme Activity Endpoint Assay: Fc of 95 ng/µL, an Enzyme Activity Endpoint Assay: IgG of 27 ng/µL and an Enzyme Activity Endpoint Assay: scIgG of 43 ng/µL.
B2 displayed an Enzyme Activity Endpoint Assay: Fab′2 of 44 ng/µL, an Enzyme Activity Endpoint Assay: Fc of 100 ng/µL, an Enzyme Activity Endpoint Assay: IgG of 23 ng/µL and an Enzyme Activity Endpoint Assay: scIgG of 21 ng/µL.
The corresponding values for B3 are 48 ng/µL, 123 ng/µL, 15 ng/µL and 16 ng/µL.
The corresponding values for B4 are 3 ng/µL, 73 ng/µL, 21 ng/µL and 65 ng/µL.
For B5, the Enzyme Activity Endpoint Assay: Fab′2 was found to be 46 ng/µL, the Enzyme Activity Endpoint Assay: Fc is 126 ng/µL, the Enzyme Activity Endpoint Assay: IgG was 13 ng/µL and the Enzyme Activity Endpoint Assay: scIgG was 15 ng/µL.
The corresponding values for B6 are 26 ng/µL, 93 ng/µL, 17 ng/µL and 44 ng/µL.
In turn, B7 yielded an Enzyme Activity Endpoint Assay: Fab′2 of 37 ng/µL, an Enzyme Activity Endpoint Assay: Fc of 104 ng/µL, an Enzyme Activity Endpoint Assay: IgG of 9 ng/µL and an Enzyme Activity Endpoint Assay: scIgG of 14 ng/µL.
As to B8, the Enzyme Activity Endpoint Assay: Fab′2 turned out to be 37 ng/µL, the Enzyme Activity Endpoint Assay: Fc was 95 ng/µL, the Enzyme Activity Endpoint Assay: IgG was 10 ng/µL and the Enzyme Activity Endpoint Assay: scIgG came out at 14 ng/µL.
For B9, in that order: 4 ng/µL, 79 ng/µL, 23 ng/µL and 69 ng/µL.
For B10, in that order: 48 ng/µL, 124 ng/µL, 14 ng/µL and 17 ng/µL.
The corresponding values for B11 are 39 ng/µL, 116 ng/µL, 9 ng/µL and 19 ng/µL.
In turn, B12 showed an Enzyme Activity Endpoint Assay: Fab′2 of 46 ng/µL, an Enzyme Activity Endpoint Assay: Fc of 124 ng/µL, an Enzyme Activity Endpoint Assay: IgG of 14 ng/µL and an Enzyme Activity Endpoint Assay: scIgG of 15 ng/µL.
The corresponding values for B13 are 863 ng/µL, 352 ng/µL, 0 ng/µL and 0 ng/µL.
